Test results from article PMC4058633 (Nature protocols, 2013).

Target: the molecule itself
Test: native MS

B1: pentameric ligand-gated ion channel of Erwinia chrysanthemi (ELIC) (natural protein)
chain: APADNAADARPVDVSVSIFINKIYGVNTLEQTYKVDGYIVAQWTGKPRKTPGDKPLIVENTQIERWINNGLWVPALEFINVVGSPDTGNKRLMLFPDGRVIYNARFLGSFSNDMDFRLFPFDRQQFVLELEPFSYNNQQLRFSDIQVYTENIDNEEIDEWWIRKASTHISDIRYDHLSSVQPNQNEFSRITVRIDAVRNPSYYLWSFILPLGLIIAASWSVFWLESFSERLQTSFTLMLTVVAYAFYTSNILPRLPYTTVIDQMIIAGYGSIFAAILLIIFAHHRQAMGVEDDLLIQRCRLAFPLGFLAIGCVLVIRGITL
  stoichiometry N: 5
